Reference: the domain aggregation screens of Martell et al. (2025)

Test: soluble fraction after stress (log2 fold change); higher = more stays soluble; pooled small domains, quantitative proteomics
Details: stress: pH 4
Method in brief: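 With high-throughput quantitative proteomics, pooled custom libraries of small protein domains were measured after pH 4 stress. Each domain's soluble amount after the stress gives a fold change taken as aggregation propensity. Higher log2 values mean more of the domain stayed soluble.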

Sequence | soluble fraction (log2)
HMDEEQIASRRALIMRAAREIMETQGMEALSIRKIAAMIQQTPGIIYHYFSGKEELMLAVVQEGYH | -0.219
HMDEFAGSAKPLADGAAPAGYDVKGNKDSMKYHEPGGRWYDATVAEVWFKTAADAEAAGFVKAGA | -0.266
HMDEFHLSERERQILNLLVLGHTYKHIASDLNIAYATVNKHVSNVYAKLRVQSASEAVALAIRKGL | -0.58
HMDEFTIILEDAGSQKIAVIKEVRVLNSSLGLKEAKDLVDATPATIMEKADKATADKAKAAFEAAGAKVTI | -0.75
HMDEIDYSKYSITTSNRIINIDGVQSKVELFDVSGRSIQSTMVTGKFSSRPLNAGFYIIHVDGYSVKVSV | -1.19
HMDELIKQVANYIINNRATINETAGAFGKSVSSIKKYINDADKLQRIDFELYQKVKEVQKIVELNGQI | -0.269
HMDEMEFQKYVDQNLKQKGISLTAEAKAELLLRLGGDTMLLHSAIEKLDLYGEKNLNLNDIKHLVSLNSDV | 0.0232
HMDENMQRYNTMEEIKKEFPYAEDTVRKLIAMGAIRGGGKVDANGDPADMDLSRDMLRMMVFNDRAGAYG | -0.761
HMDEPGTGFKWREDVLLRVMEANGIDTSHRDDFVRHAVKFDNDDNLYLKKAEIEDAAAAWVSEHS | -1.59
HMDERLAKLTPQERKILDLIAEGATNRQIGTELHLAEKTVKNYVSNMLMKLGMSRRTEAAVFAVKASIN | ≥ 0.43
HMDERLLRLYERELQFLREGADEFAQAYPKVAGHLGLNSQSMGDPFIERLLEGLGFLTARIQLQLESEF | -0.823
HMDEWFPVNDDYKFMVGDEVRTPDGLVKVVATHNDSATFYGKIITPIHDDVLKGETYEYRSYEAQVLA | -1.26
HMDEWKRKELWDAIARLPKIQRMVVTMRTTENLPYKEIAKIMNISENSAKVNYHHAVEALKIFF | 0.0454
HMDEYGEVQALQRAGQTSEALARADRHIAAHPNDPQMRFVKANLLSAGGRAGEAETLLVQLTRD | -0.176
HMDFDLIAIFEEQFARALSPIEINIIKEWKNSNYSDDMIVKALKEAVKSQVFNFRYIERILINWSQNG | -1.64
HMDFDVELTSAGTAKVKVIKAVREATGLGLKEAKDLVDNAPSIVKEGLDEAAANDLKAALEETGASVTL | 0.239
HMDFEEGAVKWFNTKKGYGFITRDQGDDIFVHFRNIKAQSRRSLTDGERVTFVVTEGDKGLQADHVSPV | -0.886
HMDFGHWAAHKLEQMSEYRLRHGEAVAIGIALDVLYSVRQGLLARPAAERILSLLERLGFTLFDPELKS | -0.291
HMDFLKSVDLSKYSKVESLILSHLSKGDFDIDDFIRSFSLGTDEVTRAIVSLEIEGIILRKGNRIFRKKS | 0.0153
HMDFMNSEIKKIVEDLKLTLQSLNYTKNEIKSILPVINKETDNLIKKEKYASFENLLRLAMNHLDNN | -0.929
HMDFTPDQIARLDDIISRYKDKPGGLIPVLEEAQVALEYLPIGVQKRIAKGLNLPLSRVYGVVTFYSFFTM | -0.451
HMDFVKGDTVVFIDAFMPDHLMTIHKVQGEGILLDGNHKFALAHLIRHASTVELNAKRRLSLTEQS | -0.685
HMDGASLLDIDGDGKVTPTIDGLLLMRWQFGTRGAALIGGISFPAGALRTTVNAIELHMRRLSETT | -1.52
HMDGDVAVKGGDGVLEVRLANAANVRVYNLAGRLMADYTGTELHMPLPKGVYMVVAGDNRTKVVV | -0.00794
HMDGEINPYTGREYVTNSVRMHPRRIGYVQVYSRKDHKWTDMTEWAFLGEQERKKVLLGKAYEPPVYL | 0.0599

Sequence | soluble fraction (log2)
HMDGEMRRKRILQLLSEQTKPLSGTALAKQFGVSRQVIVQDIALLKSKEPAIISTYRGYVLGR | 0.142
HMDGFAEFWSAYPKKVGKGAAEASWRKHRPPLQTVLDAVKRQAESDQWRKDGGQFIPNPATWLNQKRWEDD | -0.101
HMDGIIIPDVSGKSYAEAVATLNEKGFKVEKGEDAGSSLAKDLVSYTNPAAGNRAKSGATISVFVSTGANA | -0.0718
HMDGKTALQEIVASSGWSPPEYKVSESGPDHDKDFVAYAIVNGVAYPEGHGKSKREAEQVAARIAFEALSK | -0.00195
HMDGMRASDMVRAALAGAGKTQKELAEHMGWTPQNLSGRLKNNSLTFDELSKALHFAGYEVSMSDANGAG | -0.115
HMDGNVPSVEGKPLSGAKYILETYGYKTGTVTEVNSEDVPAGIVISQNPARGTTLANGGSVNLQVSLG | 0.238
HMDGPGAGGRFLAEDLGTGKMTLEALQRHYVTLVYSRTGKYEETARRLEIDRRTVKKYLDEELLAELRET | -0.0817
HMDGQGIRSITPEYYLSDSATKMPDASSSGWKSVPDDYIDKHYYWVRSKILWDDGTYTTTTPVL | -0.291
HMDGRVQATAEKLRAALDRLARSSVGSPMIERQLTVAALAREARVGRNAIYANHRDILDELIRVRQQRRA | -0.309
HMDGTAKVAHMLVNELETFNRLKKHEIAYMLHIQPETLSRILNKLTRNGTIEIEKNSVVILNIQELKEIY | -0.271
HMDGVNRDKIEYRLDDLYYLKGSDAPYTGKVFEEWSGQQRVETNYIDGKLDGLSESWHENGQKASEVNY | -0.831
HMDHFLRRFQVEGLNLEKLLRLAAEREMDLLQVRRSGRRMTGLVAEKRLPELEELAAQGGWALRLGEY | ≥ 0.43
HMDHSSLIKKLRLERGLSQKKLAQGISQRSTLASFENNATKISYNILIQYLDRMNVTLEEYQFMLDGNNL | -1.33
HMDHWQSVNSALELLEVSRRTLYDYISRKKLQTKKEGKYRYVWIDDDVIEEIKTSKSAYIEINN | -1.08
HMDIAATTVKQKIRTLLADEDAARPLSDQKIADALAEDGIDVARRTVAKYREELGIEPSWARKR | 0.0608
HMDIDLGAVEEQAVKGSGPGGQKMNKTSSGVLLRYRLGEELVLVKWTRERQHSLNRFLALRELVDEIEAR | -0.099
HMDIFFEKIFNILIGYNQNQENLISEKSILNFHLSHKSNSNFEYIPDEKTPKYIWKYLSNYNLLE | -0.477
HMDIFLPDVKGYDLIPSFRRHLPDIDVIAMTGYNTRALESAVRQQDVLFYMIKPFEASQLKEILEHLVK | -0.279
HMDIKEIIKNRRIELGLTLKEVATAVGVSEGTVSRWESGNITNMKRNKIAALAKTLQIPPTTI | 0.0875
HMDIKKHISATLKREMEKRGLNFMEFSTELGIPRTTLQGYLKGTSSPQADSLEELADKLGISPAELVSG | -0.434
HMDIMLLLYKNIKKRRLEIGMSQEELAQKTGYTSRSSIAKIEKGEVDLQLSKIKLFANALRVSQSELMG | -0.31
HMDIMTVGERVKKLAEKQGISLRELAKKAELSYNTVYSITRRGSERVAPDTISRLANALGVNVNELT | ≥ 0.43
HMDINEIILKVASEKKTFKTSDVLEALDNNYTKQHVSALISAMVKKGILVKAGSTAKSTYALPENASLL | 0.0858
HMDINIETLNYYVGKAKIPLSELRISVKNIDLFLSGEKQPTFNQLSSIAKKLNIPTGLLLLDESIEV | -1.34
HMDIPGITAVKPQAAFYMFPKIDVKKFNIVNDEKFALDLLQDKKILIVQGSGFNWKQPDHFRVV | 0.115

Sequence | soluble fraction (log2)
HMDIRVAHVDDDMSFGEAFAQARSQVGPGGVFEWHGKLYGTYTAEEWASMSPAERSQYQQAVFN | 0.105
HMDIVLPFSFAKRHGVVLSERQGETELLYLKGLPVRVLAEARRVLRQEFTVRQVEQAVFDKALSESYQN | -0.591
HMDIYLDDINRKILHLLSQGVKTKSLRDYIDLSMSAIEKRKKHLKDLFLIEDGKDETLLSEARKKGF | -0.398
HMDKAGWLPARVRLADYPALKQLAWQVQGVDELTPREALGIYERNWRHLDEAALLPRERNLIDALRLAFG | -0.16
HMDKEQVTFIFRDIDIALRSLDYPIKDIKNTLNIIKSEFSNSKSTELNEQKINFENILKEAISILENND | -0.969
HMDKFKDVGARIREARKVQKLSQADLAERLQISTSHMSDIENGKKNIGLDIFMRLTEALQVSADWLL | -0.567
HMDKFTYVVKKEDEQYQIKDILRHNFTFSSRLRKKLKQNNSIFLNGAETVGWATPKEGDIISVRLP | 0.219
HMDKKEFGKRLKNLRIRNKMSQQAMADSLGYTSRSTINKIEEGINEMSYDKIVRLMELYGLSRPDLGLEPI | -0.157
HMDKKTMFNEALAKLVSYATAHDNLITMEDVKSFFNGLIDDDSQYKLIYDYLSINKIEIKGFT | -0.704
HMDKLEKRILDYLLQKSAIDGSTILKISHREMAMDLGTAREVVTRILKKLETGGFVRQGENYLEILK | -0.456
HMDKPIFTLRENEVLYWASMGKTYAEIATIVGISVRTVKFHMGNVVSKLGVSNARQAIRLGVELDLITPMQ | -1.76
HMDKSFYETFEKIGHGDFDKGLNHVWQHANDGNGTATLLLSKLFLEFGDLDNFEKYLNISAEQSNPVAMKI | -0.191
HMDKSNEVLMNHYRKQEINQAKKRLEEEKMSIIQVLQLTNKEVITTDELLEALYISKEQLLDEIINTTQ | -1.02
HMDKSPVLQLNRDVPAGQQISADDFRTVEIGADGAFRSVPSSDLNAMVGSYAKVRLIAGTLLAREALQSG | -0.0884
HMDKSRPVLRVGDSGDWVSKLQTALLEFGYRVAVDGVFGEHTKSAVVHFQNGRRLIADGVVGNLTWDALL | -0.968
HMDKWFPVSSDHKVQVGDYLRTADGLVKVEATHNEYGTFYGKIITAIHDDVVKGETYEYRIDDVQVLA | -1.77
HMDLAPLQTVDIAINYAKAAELAAILKSSEGGILSDRGGVTVDERTNTLLIRDTLESIDEARKTI | -0.4
HMDLATQHAAKVNAAILAARRFEREGSWRQVAAKYSEALQLMPGNEQASRGYQQAMAMLDERD | 0.41
HMDLDSGVAVLRTLMSQHNLQTDDFQNEIGGKSMVSMILNGTRKLSKNHIQALSGRFNLSPALFF | -0.494
HMDLEELSNKMNNVFESLSSDLRDIIIMSDIEGLSYEEISHKINIPIGTVRSRLHRARDLMVRVIKEN | -0.713
HMDLGEQIIEKLRAAGGFLAITDKSPAEEIYELFATSKKNYKKAVGGLYKKGLLVIEDDGIRLTPAGR | ≥ 0.43
HMDLHERISSVLLGTGKSNDELAQILGVNKNTISAYKNKHGDLKGIVLEGIVKHFDINPVWLLTGSGTR | 0.0745
HMDLKSLEFAIVENVQRHDLNPLEEAQGYKRLIDEFSYDQDKVSKFIGKSRSYITNSLRLLNLPLEVLEF | -0.541
HMDLKTNSQLINELEKKIKRPFDREIKNYLNKNLSTDRMISNNEIDKIILFYSGNNEIPNIEKISLILNDN | 0.0193
HMDLPATVPNLEGLTEVTARNKLTVAGLSLGEVKEVESDKEKGTVVGQSIAYGKRVTKGTKVDIEISSGK | 0.318
